Measured values as given in patent EP4806919A1 (Cells & Genes Biotech (Shanghai) Co., Ltd, dated 2026).
Where “and” joins values, the source holds several entries; their conditions need not be identical. Equal entries are not always repeated.

Experiments:
[1] = target: BCMA on cell surface of BCMA-positive cells (NCI-H929; RPMI-8226) (UniProt Q02223); assay: flow cytometry on NCI-H929 cells, control without nanobody
[2] = target: Cyno BCMA-His antigen (cyno (monkey)); assay: phage ELISA, antigen coated 100 ng/well, Anti-M13 HRP
Sequence of Cyno BCMA-His antigen (cyno (monkey)) (chain, as listed by the source): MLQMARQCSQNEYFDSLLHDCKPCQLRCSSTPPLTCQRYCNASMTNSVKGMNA

[3] = target: Human BCMA-His recombinant protein (human) (UniProt Q02223); assay: as above
[4] = target: T1, Human BCMA-His recombinant protein (human, UniProt Q02223 1-54); assay: ELISA, Human-BCMA-His coated 200 ng/well
T1 construct: Supplied reagent (Chengdu Shengshi Junlian Biotechnology, Cat# BCA-H522y); also called Cat# BCA-H522y; not shown: His tag
T1 sequence (looked up): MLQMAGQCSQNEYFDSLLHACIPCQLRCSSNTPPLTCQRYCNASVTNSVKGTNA

[5] = target: BCMA on cell surface of BCMA-positive cells (NCI-H929; RPMI-8226) (UniProt Q02223); assay: flow cytometry on NCI-H929 cells, antibody 10 ug/mL
[6] = target: T1, Human BCMA-His recombinant protein; assay: ELISA, Human BCMA His coated 200 ng/well, anti-human Fc HRP
[7] = target: BCMA on cell surface of BCMA-positive cells (NCI-H929; RPMI-8226) (UniProt Q02223); assay: flow cytometry on NCI-H929 cells, antibody 10 ug/ml, PE anti-human Fc

## hIgG Fc-PE (antibody)
[1]
  NCI-H929 Positive Rate%: 0.04%

B1: BC-HC-15 (positive phage clone, VHH displayed on phage) (VHH)
VHH: EVQLVQSGGGSVQAGGSLRLSCAASGGDISSTFMGWFRQAPGKEREGVAAIYTGDGTTDYADSVKGRFTIAQDNAKNTVYLEMSRLKPEDTALYYCATGLDGSGSVFSPRSFRYWGQGTQVTVSS
[2]
  OD (phage ELISA, monkey): 1.79 OD450
[3]
  OD (phage ELISA, human): 2.11 OD450

B2: BC-HC-15 nanobody, recombinant VHH-hIgG1Fc antibody (Fc fusion)
chain: B1 VHH
notes: also called VHH-hFC; not shown: human IgG1 Fc (hIgG1Fc) from the pVHH-hIgG1Fc expression plasmid
[4]
  EC50: < 10 nM
[5]
  positive binding rate: > 95%
[6]
  EC50: 0.605 µg/mL and 7.57 nM
[7]
  NCI-H929 Positive Rate%: 99.9%
